The source of these data is paper PMC2132824.

Holding throughout (test): co-sedimentation
One assay addresses F-actin.
Assay [1] deals with human platelet nonmuscle F-actin (human) (UniProt P60709).
In assay [2] the target is rabbit skeletal muscle F-actin (rabbit) (UniProt P68135).

“And” between values parts separate entries of the source, which are not always exact repeats. Identical values can stand only once.

As for “recombinant full-length small espin (natural protein)”, the stoichiometry N (actin monomers per espin) with F-actin was 3 and 4. In addition, the Kd in assay [1] was 50 nM; in assay [2], 150 nM.
